Experiments:
AncSZ = experiment: phosphorylation enrichment, bacterial display (enrichment ratio); higher = better substrate or ligand; peptides without Tyr show the background
EPHB1 = EPHB1 (UniProt P54762); experiment: as above
EPHB2 = EPHB2 (UniProt P29323); experiment: as above
FGFR1 = FGFR1 (UniProt P11362); experiment: as above
FGFR3 = FGFR3 (UniProt P22607); experiment: as above
Fer (mouse) = experiment: as above
Fes = Fes (UniProt P07332); experiment: as above
Fyn = Fyn (UniProt P06241); experiment: as above
Fyn, sequence (P06241 whole entry, looked up): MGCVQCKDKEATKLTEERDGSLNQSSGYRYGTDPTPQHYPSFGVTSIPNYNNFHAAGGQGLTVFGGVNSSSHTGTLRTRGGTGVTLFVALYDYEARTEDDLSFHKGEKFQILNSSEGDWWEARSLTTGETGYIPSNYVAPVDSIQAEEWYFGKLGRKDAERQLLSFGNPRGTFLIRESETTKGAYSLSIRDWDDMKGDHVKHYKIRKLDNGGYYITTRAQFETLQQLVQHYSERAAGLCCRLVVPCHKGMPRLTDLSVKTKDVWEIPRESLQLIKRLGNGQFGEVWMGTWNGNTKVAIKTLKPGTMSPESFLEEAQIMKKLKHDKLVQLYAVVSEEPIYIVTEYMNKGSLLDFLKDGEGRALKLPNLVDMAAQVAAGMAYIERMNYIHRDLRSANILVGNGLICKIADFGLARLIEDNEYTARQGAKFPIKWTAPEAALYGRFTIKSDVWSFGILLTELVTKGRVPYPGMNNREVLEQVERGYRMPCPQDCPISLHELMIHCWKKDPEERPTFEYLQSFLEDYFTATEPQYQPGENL

Hck = Hck (UniProt P08631); experiment: as above
Hck, sequence (P08631 whole entry, looked up): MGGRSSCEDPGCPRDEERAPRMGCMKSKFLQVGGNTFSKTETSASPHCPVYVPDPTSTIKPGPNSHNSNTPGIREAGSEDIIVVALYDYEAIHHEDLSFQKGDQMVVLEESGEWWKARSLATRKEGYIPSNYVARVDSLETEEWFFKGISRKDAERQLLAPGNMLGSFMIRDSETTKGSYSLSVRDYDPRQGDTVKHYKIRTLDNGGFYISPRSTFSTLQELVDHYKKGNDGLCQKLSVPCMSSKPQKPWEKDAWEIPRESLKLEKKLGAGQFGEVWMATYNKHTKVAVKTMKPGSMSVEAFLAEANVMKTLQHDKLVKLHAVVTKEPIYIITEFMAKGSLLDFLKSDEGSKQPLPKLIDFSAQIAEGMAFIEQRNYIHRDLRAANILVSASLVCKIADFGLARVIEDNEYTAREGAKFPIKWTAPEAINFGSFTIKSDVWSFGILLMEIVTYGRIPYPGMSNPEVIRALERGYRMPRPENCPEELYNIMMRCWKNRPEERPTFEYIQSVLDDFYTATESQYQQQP

Jak2 = Jak2 (UniProt O60674); experiment: as above
MERTK = MERTK (UniProt Q12866); experiment: as above
MERTK, sequence (Q12866 whole entry, looked up): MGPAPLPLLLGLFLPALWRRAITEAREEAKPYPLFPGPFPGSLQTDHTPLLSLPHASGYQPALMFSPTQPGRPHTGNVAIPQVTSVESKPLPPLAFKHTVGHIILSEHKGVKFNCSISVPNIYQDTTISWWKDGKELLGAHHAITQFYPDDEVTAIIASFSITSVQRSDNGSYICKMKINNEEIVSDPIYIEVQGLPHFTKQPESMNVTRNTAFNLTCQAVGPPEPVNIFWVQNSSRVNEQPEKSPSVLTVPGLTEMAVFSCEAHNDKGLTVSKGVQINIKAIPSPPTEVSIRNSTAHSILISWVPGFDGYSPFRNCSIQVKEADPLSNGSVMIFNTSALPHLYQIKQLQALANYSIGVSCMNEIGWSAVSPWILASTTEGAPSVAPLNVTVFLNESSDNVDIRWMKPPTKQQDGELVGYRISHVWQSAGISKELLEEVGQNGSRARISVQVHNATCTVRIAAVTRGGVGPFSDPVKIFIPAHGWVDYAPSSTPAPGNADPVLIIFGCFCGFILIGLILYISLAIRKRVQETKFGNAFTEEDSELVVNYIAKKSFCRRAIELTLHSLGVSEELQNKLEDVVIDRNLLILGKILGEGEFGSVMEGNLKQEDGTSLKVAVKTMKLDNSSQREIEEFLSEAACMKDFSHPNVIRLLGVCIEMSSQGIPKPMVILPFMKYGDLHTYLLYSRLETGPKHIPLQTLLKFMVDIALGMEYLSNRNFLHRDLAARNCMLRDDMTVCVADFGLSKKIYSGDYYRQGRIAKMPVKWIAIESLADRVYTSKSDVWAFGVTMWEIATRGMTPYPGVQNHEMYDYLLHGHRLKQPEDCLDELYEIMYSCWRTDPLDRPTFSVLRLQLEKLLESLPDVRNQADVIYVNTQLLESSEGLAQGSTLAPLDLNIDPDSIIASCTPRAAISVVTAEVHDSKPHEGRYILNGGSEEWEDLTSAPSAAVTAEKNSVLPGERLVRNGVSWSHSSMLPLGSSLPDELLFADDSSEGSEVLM

c-Abl (mouse) = experiment: as above
c-Src = experiment: as above
Grb2 SH2 = Grb2 SH2 (UniProt P62993); experiment: SH2 binding enrichment of the phosphorylated peptide, bacterial display (enrichment ratio); higher = better substrate or ligand; peptides without Tyr show the background
Grb2 SH2, sequence (P62993 whole entry, looked up): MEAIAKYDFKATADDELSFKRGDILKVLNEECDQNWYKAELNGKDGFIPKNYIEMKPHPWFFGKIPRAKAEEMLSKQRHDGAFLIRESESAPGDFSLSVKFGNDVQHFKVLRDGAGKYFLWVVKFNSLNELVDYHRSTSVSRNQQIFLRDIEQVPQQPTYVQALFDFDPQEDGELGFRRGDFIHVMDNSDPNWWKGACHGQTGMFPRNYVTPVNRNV

SHP2-C SH2 = experiment: as above
c-Src SH2 = experiment: as above
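Throughout, for SH2 binding enrichment of the phosphorylated peptide, bacterial display: peptide library displayed on the E. coli surface as eCPX fusions, selected cells deep-sequenced, score is each peptide's frequency after selection divided by its frequency in the input.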
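Throughout, for phosphorylation enrichment, bacterial display: 11-residue human phosphosite peptides and single-mutation variants displayed on the E. coli surface, counted by deep sequencing, each peptide's frequency after selection divided by its frequency in the unselected input library; frequency after pTyr selection over input frequency; kinase dosed for 20-30% of maximal phosphorylation in three min.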

Fes, sequence (P07332 whole entry, looked up): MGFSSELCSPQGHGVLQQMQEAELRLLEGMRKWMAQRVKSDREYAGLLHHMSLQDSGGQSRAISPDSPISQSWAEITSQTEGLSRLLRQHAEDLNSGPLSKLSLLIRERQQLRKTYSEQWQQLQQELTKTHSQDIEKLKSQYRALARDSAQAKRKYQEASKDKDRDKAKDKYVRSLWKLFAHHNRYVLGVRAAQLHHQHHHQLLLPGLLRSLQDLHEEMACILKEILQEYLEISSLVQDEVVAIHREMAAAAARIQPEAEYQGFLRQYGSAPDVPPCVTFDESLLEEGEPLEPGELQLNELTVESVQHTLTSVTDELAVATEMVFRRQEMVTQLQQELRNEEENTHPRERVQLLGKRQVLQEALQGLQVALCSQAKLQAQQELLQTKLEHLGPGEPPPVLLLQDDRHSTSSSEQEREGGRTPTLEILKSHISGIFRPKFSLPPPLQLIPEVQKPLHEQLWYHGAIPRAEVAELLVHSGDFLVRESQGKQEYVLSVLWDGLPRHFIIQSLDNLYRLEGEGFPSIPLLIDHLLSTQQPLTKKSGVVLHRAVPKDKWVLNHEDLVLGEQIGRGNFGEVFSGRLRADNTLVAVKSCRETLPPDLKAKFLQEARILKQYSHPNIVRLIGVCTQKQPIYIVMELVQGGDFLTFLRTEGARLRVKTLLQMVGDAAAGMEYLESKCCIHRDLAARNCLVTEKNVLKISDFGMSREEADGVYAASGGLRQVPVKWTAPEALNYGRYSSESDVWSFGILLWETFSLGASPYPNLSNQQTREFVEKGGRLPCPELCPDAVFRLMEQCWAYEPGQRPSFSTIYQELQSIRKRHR
FGFR1, sequence (P11362 whole entry, looked up): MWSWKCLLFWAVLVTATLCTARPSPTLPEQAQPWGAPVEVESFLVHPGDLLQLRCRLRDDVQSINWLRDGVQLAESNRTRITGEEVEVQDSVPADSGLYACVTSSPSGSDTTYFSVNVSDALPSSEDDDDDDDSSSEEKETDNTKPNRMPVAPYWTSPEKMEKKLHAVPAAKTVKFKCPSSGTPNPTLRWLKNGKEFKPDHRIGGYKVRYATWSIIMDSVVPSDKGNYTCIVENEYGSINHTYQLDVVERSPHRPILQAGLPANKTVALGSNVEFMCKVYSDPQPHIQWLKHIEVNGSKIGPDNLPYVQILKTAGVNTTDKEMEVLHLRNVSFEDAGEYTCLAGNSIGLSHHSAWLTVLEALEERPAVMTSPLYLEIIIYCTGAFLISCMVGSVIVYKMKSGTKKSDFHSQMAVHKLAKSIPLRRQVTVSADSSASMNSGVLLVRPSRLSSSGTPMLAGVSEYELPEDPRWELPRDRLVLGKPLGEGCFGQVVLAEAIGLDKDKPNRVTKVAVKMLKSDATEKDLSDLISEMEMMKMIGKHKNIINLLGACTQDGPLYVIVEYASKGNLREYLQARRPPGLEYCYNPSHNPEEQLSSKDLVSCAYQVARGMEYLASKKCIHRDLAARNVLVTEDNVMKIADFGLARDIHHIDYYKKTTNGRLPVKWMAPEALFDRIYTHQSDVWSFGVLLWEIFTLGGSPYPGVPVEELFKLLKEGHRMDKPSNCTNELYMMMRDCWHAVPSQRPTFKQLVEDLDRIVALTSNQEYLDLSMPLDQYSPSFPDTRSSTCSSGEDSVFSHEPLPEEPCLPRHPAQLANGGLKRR
FGFR3, sequence (P22607 whole entry, looked up): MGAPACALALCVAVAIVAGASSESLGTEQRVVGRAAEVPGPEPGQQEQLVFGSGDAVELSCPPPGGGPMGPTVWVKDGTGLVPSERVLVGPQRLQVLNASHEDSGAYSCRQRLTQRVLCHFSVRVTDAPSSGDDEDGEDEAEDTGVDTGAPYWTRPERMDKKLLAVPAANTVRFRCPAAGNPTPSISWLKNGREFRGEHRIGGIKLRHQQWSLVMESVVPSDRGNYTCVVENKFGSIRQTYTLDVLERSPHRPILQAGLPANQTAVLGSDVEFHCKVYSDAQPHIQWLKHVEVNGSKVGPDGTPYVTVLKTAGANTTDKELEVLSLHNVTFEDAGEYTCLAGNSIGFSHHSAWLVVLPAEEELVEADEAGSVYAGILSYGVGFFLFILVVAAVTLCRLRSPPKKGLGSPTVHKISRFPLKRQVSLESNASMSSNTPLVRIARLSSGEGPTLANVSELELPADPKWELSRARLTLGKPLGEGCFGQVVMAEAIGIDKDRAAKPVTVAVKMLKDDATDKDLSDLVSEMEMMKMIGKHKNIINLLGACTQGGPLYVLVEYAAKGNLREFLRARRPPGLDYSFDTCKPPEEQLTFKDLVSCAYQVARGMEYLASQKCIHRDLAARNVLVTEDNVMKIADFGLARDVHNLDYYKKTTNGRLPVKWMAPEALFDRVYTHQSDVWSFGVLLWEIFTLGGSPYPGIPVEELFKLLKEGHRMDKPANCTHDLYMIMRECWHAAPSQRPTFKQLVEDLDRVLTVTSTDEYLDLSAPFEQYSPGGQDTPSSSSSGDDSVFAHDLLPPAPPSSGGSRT

Sequence	phosphorylation enrichment (AncSZ)	phosphorylation enrichment (EPHB1)	phosphorylation enrichment (EPHB2)	phosphorylation enrichment (FGFR1)	phosphorylation enrichment (FGFR3)	phosphorylation enrichment (Fer (mouse))	phosphorylation enrichment (Fes)	phosphorylation enrichment (Fyn)	phosphorylation enrichment (Hck)	phosphorylation enrichment (Jak2)	phosphorylation enrichment (MERTK)	phosphorylation enrichment (c-Abl (mouse))	phosphorylation enrichment (c-Src)	SH2 binding enrichment (Grb2 SH2)	SH2 binding enrichment (SHP2-C SH2)	SH2 binding enrichment (c-Src SH2)
NVVQEYERVII [NPHS2_Y131_K126N]	1.17	2.13	2.22	0.59	0.668	4.44	0.942	0.47	0.589	0.772	0.442	0.633	0.485	0.978	0.831	0.557
NYNPNYCFAGK [ALK_Y1096_D1091N]	1.26	3.98	1.27	0.563	0.642	0.597	0.879	0.57	0.433	0.856	1.1	0.803	0.564	0.868	0.878	0.55
PADSGYPAYLG [ATP6V1A_Y374]	1.18	1.77	0.468	0.755	0.892	0.798	1.51	1.05	0.735	0.823	0.417	1.14	0.592	1.11	0.62	0.614
PAGSGYPAYLG [ATP6V1A_Y374_D371G]	0.782	1.22	0.638	1.17	0.914	0.866	0.752	0.574	0.645	0.727	0.442	0.525	0.417	0.884	0.688	0.396
PAQAAYQKVVA [HBB_Y131_V127A]	0.647	0.562	0.67	0.544	0.62	0.477	0.771	0.879	0.542	0.59	0.349	0.589	0.375	0.9	0.884	0.87
PDSVDYRKKGY [CTSK_Y121]	1.07	0.599	1.67	1.06	0.661	0.657	1.08	0.749	0.78	1.01	0.823	0.976	0.905	1.14	0.708	0.686
PEADKYRLTYA [FGG_Y300]	1.61	0.832	1.09	0.888	1.14	0.828	1.51	0.626	1.62	1.13	0.777	0.825	0.604	0.806	0.736	0.392
PEPTGYSAELS [EZR_Y499_A494P]	1.02	0.573	0.851	0.502	0.762	0.456	0.943	0.57	0.419	0.871	0.567	0.962	0.461	0.87	0.63	0.461
PESILYRKFTT [NTRK1_Y701]	1.14	0.668	0.52	0.627	0.73	0.818	0.9	0.377	0.538	1.14	0.542	0.732	0.632	0.724	0.81	0.412
PFWKLYESVKK [MKI67_Y241]	1	6.75	2.31	0.52	0.703	1.8	1.39	1.03	4.34	1.58	0.966	1.07	1.58	1.16	0.625	0.766
PGAPAYRVLME [MYO5A_Y1245]	0.592	0.397	0.585	0.379	0.726	0.671	1.29	0.542	0.564	1.06	0.566	1.52	0.423	0.728	0.71	0.422
PGLKGYPGLSG [COL4A2_Y306_R304K]	0.476	0.474	0.307	0.369	0.318	0.218	0.468	0.213	0.434	0.422	0.367	0.639	0.347	0.652	0.504	0.431
PGPPGYCDSSQ [COL12A1_Y3043]	1.03	0.914	0.492	0.461	0.941	0.77	1.41	0.643	0.639	1.08	0.505	0.707	0.594	0.979	0.692	0.603
PGQAAYQKVVA [HBB_Y131_V127G]	0.68	0.517	0.525	0.373	0.558	0.49	0.831	0.478	0.361	0.626	0.514	0.491	0.579	0.984	0.615	0.922
PIAPVYAPSMV [ACAT1_Y331_A333P]	1.35	2.4	2.72	0.779	1.22	16.1	1.67	9.96	21	0.738	4.7	49.8	8.41	0.785	0.718	0.621
PIFEGYGLPHA [ACTA1_Y171_A172G_YF]	0.806	0.469	0.5	0.628	0.451	0.744	0.866	0.701	0.642	0.836	0.641	0.872	0.547	0.612	0.581	0.516
PIYLYYLMDLS [ITGB2_Y131_D128Y]	4.09	7.52	6.17	13.6	13.9	4.54	3.42	5.41	4.44	8.11	11.1	3.32	6.42	0.902	0.842	0.751

Sequence	phosphorylation enrichment (AncSZ)	phosphorylation enrichment (EPHB1)	phosphorylation enrichment (EPHB2)	phosphorylation enrichment (FGFR1)	phosphorylation enrichment (FGFR3)	phosphorylation enrichment (Fer (mouse))	phosphorylation enrichment (Fes)	phosphorylation enrichment (Fyn)	phosphorylation enrichment (Hck)	phosphorylation enrichment (Jak2)	phosphorylation enrichment (MERTK)	phosphorylation enrichment (c-Abl (mouse))	phosphorylation enrichment (c-Src)	SH2 binding enrichment (Grb2 SH2)	SH2 binding enrichment (SHP2-C SH2)	SH2 binding enrichment (c-Src SH2)
PKGTGYIKTEL [STAT1_Y701]	0.973	0.411	0.557	0.792	1.01	0.801	0.835	0.512	0.748	0.986	0.694	0.559	0.635	0.93	0.893	0.446
PLGPLYASSNT [INSR_Y992_P997T]	1.87	0.896	0.783	0.633	0.73	1.1	0.949	0.908	3.67	0.723	1.12	1.51	1.22	0.914	1.1	0.526
PLGVLYKVKVY [PTS_Y128_V124L]	1.61	0.674	0.626	0.415	0.82	0.511	1.4	0.339	0.465	1.19	0.318	0.876	0.36	0.828	0.817	0.484
PLLTDYSPQLQ [OTC_Y345_S340P]	1.54	1.11	1.17	1.19	1.19	0.879	1.9	0.698	0.951	0.964	0.965	1.02	0.616	1	0.656	0.445
PPKFFDTRKLL [CYBB_Y41_Y41D]	0.992	0.383	0.556	0.365	0.38	0.941	0.639	0.518	0.51	0.663	0.796	0.759	0.614	1.54	1.17	0.92
PPPPAYDDVAQ [TNK2_Y635]	1.16	0.579	0.669	0.467	0.591	0.547	0.993	0.45	0.439	1.03	0.676	0.806	0.622	0.757	0.706	4.13
PRIHSYRGHLW [VHL_Y112_R107P]	1.01	1.56	0.451	0.771	0.579	0.722	1.08	0.611	0.713	0.628	0.655	1.09	0.748	1.55	1.86	1.89
PRQRRYVYYYS [PTEN_Y174_S170R]	1.05	0.656	1.02	0.753	0.929	0.904	0.683	0.882	0.911	0.979	0.877	0.769	0.728	0.909	0.839	0.413
PSAELYSYALP [PDGFRB_Y716_N718Y]	3.71	18	21.2	10.6	10	25.8	1.92	6.1	8.81	0.947	16.8	1.55	5.38	0.966	0.641	3.46
PSDPSYEDMRE [BMPR1A_Y467]	2.49	0.901	0.495	0.758	1.27	1.26	1.59	0.848	1.28	1.45	0.504	0.831	0.534	0.832	0.324	1.12
PSPMPYACCQM [FOXL2_Y215_S217C]	0.703	0.663	0.437	0.494	0.812	0.831	1.3	0.71	0.427	0.516	0.615	0.49	1.02	0.888	0.426	1.32
PSSNLYYRWLT [CNGA3_Y168]	1.89	3.17	4.17	13.5	9.96	6.19	1.4	3.84	8.15	7.82	12.4	7.69	4.28	1.32	1.59	0.816
PSTYRYERGSR [INPPL1_Y663_P659S]	0.718	0.663	0.511	0.641	0.588	0.474	0.59	0.721	0.661	0.475	0.561	0.446	0.546	0.814	0.492	0.495
PVFEVYPLLNC [GATA1_Y78_Q76E]	1.64	0.742	0.756	2.54	1.9	0.533	1.86	0.418	0.597	1.48	0.559	1.03	0.758	0.945	0.73	0.551
PVGVLYEVKVY [PTS_Y128_K129E]	1.64	0.945	0.552	0.783	1.02	0.56	1.67	0.775	0.728	1.78	0.55	2.37	0.585	0.966	0.725	0.537
PVKDPYVMFPQ [PLEKHG2_Y489]	0.982	0.603	0.562	2.05	1.54	0.49	1.03	1.62	0.685	0.964	0.47	0.636	2.43	0.569	0.453	2.35

From the supplement of paper PMC10065799, “High-throughput profiling of sequence recognition by tyrosine kinases and SH2 domains using bacterial peptide display” (eLife, 2023)
